The source of these data is patent US10925971B2, “Methods of treating PRLR positive breast cancer” (Regeneron Pharmaceuticals, Inc., priority 2016, dated 2021).

Assay [1] concerns Macaca fascicularis PRLR (mfPRLR.mmh; SEQ ID NO:403). The experiment in a line: Surface plasmon resonance (Biacore T200), antibody-capture format. The conditions noted are these: analyte mfPRLR.mmh. The assay is classed as binding. The essentials:
(§1)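 Antibodies (human IgG1 Fc) captured on an anti-human Fc sensor surface; soluble monomeric (.mmh) or dimeric (.mFc) PRLR injected as analyte. ka and kd obtained by fitting to a 1:1 binding model.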

For assay [2], the target named is T1, dimeric human PRLR (hPRLR.mFc; SEQ ID NO:402) (Homo sapiens, UniProt P16471).
T1 construct: dimeric (hPRLR.mFc)
T1 sequence (P16471 with tags, fused parts or gaps): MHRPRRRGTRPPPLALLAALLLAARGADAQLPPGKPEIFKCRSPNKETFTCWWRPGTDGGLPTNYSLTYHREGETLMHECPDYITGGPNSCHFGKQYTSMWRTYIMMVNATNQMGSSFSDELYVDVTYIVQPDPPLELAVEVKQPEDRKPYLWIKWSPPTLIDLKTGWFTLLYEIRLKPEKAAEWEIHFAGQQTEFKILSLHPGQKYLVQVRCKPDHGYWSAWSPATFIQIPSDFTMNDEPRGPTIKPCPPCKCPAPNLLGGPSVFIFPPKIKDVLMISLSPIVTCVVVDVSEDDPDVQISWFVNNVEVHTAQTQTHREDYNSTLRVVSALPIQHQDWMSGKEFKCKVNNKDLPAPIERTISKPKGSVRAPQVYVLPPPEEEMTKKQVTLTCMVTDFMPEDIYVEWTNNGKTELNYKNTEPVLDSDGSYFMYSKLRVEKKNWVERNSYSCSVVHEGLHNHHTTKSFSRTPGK
The assay is described as above. The assay is classed as binding. The note with it: analyte hPRLR.mFc. The method, boiled down:
as §1

Assay [3] addresses T2, monomeric human PRLR (hPRLR.mmh; SEQ ID NO:401) (Homo sapiens, UniProt P16471).
T2 construct: soluble monomeric (hPRLR.mmh); mmh (myc-myc-hexahistidine) (C)
The description is as above. The format is binding. The conditions noted are these: analyte hPRLR.mmh. The method, boiled down: as §1

For assay [4], the system named is HEK293 parental cells. The experiment in a line: FACS cell surface binding. On the set-up: species or system human. The method, boiled down:
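HEK293 cells stably transfected with HA-tagged human, cynomolgus or mouse PRLR (G418-selected), or parental HEK293, were stained with 10 μg/ml antibody for 30 min on ice. Binding was then detected with 10 μg/ml PE anti-human secondary for 30 min on ice, and MFI was expressed as fold over isotype control.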

The target of assay [5] is T3, native PRLR expressing T47D cells (Homo sapiens, UniProt P16471).
T3 construct: a native PRLR expressing cell line (T47D); endogenous in cells; host or cells: T47D
T3 sequence (P16471 25-622): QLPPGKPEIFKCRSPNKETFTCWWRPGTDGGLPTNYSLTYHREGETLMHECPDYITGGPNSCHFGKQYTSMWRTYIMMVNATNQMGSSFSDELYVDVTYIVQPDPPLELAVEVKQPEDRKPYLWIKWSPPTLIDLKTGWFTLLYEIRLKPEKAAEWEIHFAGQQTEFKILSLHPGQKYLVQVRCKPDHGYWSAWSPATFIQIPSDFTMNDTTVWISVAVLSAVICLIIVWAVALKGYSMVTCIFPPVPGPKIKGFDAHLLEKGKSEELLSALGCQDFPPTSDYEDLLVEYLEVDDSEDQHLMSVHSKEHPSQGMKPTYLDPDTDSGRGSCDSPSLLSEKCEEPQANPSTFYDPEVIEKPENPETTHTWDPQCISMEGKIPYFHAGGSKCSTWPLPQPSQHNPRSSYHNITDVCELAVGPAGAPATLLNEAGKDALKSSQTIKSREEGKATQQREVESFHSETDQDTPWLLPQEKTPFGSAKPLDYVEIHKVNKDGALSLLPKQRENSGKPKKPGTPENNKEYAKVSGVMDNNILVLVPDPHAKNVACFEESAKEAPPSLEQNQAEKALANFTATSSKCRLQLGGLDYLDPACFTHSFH
Put plainly: FACS cell surface binding. The method, boiled down: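 Flow cytometry on native PRLR-expressing T47D cells, alongside PRLR-overexpressing and parental HEK293 lines. Cells (1×10^5) incubated with antibody at 10 μg/ml, 30 min on ice, then PE anti-human secondary; binding reported as MFI fold over isotype control.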

Assay [6] has as its system MCF7/PRLR tumors. Put plainly: MCF7/PRLR breast cancer xenograft, tumor size and tumor growth inhibition. The assay is classed as in vivo, NCr nude mice. The essentials:
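MCF7/PRLR cells in mammary fat pad of female NCr nude mice, PC3/PRLR in flank of male SCID, T47D #11 in flank of female CB17 SCID, all with estrogen pellets.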

Where [7] appears, read: MCF7/PRLR tumors TRIAL #1, NCr Nude mice, multi-dose 15 mg/kg, Day 52.
Where [8] appears, read: MCF7/PRLR tumors TRIAL #2, NCr Nude mice, multi-dose 15 mg/kg, Day 63.

Sequence of Macaca fascicularis PRLR (mfPRLR.mmh; SEQ ID NO:403) (as listed by the source): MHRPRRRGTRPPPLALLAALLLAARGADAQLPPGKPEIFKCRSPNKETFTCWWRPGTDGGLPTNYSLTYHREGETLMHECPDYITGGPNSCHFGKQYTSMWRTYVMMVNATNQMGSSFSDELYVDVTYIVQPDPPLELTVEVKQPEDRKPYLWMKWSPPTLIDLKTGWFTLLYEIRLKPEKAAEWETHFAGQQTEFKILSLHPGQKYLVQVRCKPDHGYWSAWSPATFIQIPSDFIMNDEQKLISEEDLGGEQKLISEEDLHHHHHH
T2 sequence (P16471 with tags, fused parts or gaps): as the sequence (as listed by the source) above, with V105I, T139A, M154I, T187I, I236T counted along it

B1: H1H6774P: fully human anti-PRLR antibody, human IgG1 Fc; HCVR/LCVR SEQ ID NOs 34/42 (antibody, V domains shown)
VH: EVQLVESGGGLAQPGGSLRLSCVASGFTFSTYWMSWVRQAPGKGLDWVGNIKQDGSEQNYVDSVRGRFTISRDNAKNSLFLQMNSLRAEDTGVYYCATLLTKGDYWGQGTLVTVSS
VL: DIQMTQSPSSLSASVGDSVTITCRASQDISNYLDWFQQKPGKAPKSLIYAASILQGGVPSRFSGSGYGTDFTLTISSLQPEDFATYYCRQYKTYPFTFGPGTKVDIK
With B1, the ka turned out to be 495000 M/s in assay [1] (25° C.); 723000 M/s in assay [1] (37° C.); 798000 M/s in assay [2] (25° C.); 1.41e+06 M/s in assay [2] (37° C.); 715000 M/s in assay [3] (25° C.); 1.07e+06 M/s in assay [3] (37° C.). Moreover, the kd amounted to 0.000875 s⁻¹ in assay [1] (25° C.); 0.00361 s⁻¹ in assay [1] (37° C.); 8.94e-05 s⁻¹ in assay [2] (25° C.); 0.000194 s⁻¹ in assay [2] (37° C.); 0.000818 s⁻¹ in assay [3] (25° C.); 0.00317 s⁻¹ in assay [3] (37° C.). In addition, the “FACS Cell Binding” value in assay [4] is reported as 1 Fold Above Background; in assay [5] it was 39 Fold Above Background.

B2: H1H6795P: fully human anti-PRLR antibody, human IgG1 Fc; HCVR/LCVR SEQ ID NOs 162/170 (antibody, V domains shown)
VH: QVQLVQSGAEVKKPGASVKVSCKASGYTFGTSGITWVRQAPGQGLEWMGWSSAYNGKTDYAQKFQDRVTMTTDTSTTTGYMEMRSLTSDDTAVYYCTTVVRRPFDFWGQGTLVTVSS
VL: DIQMTQSPSSLSASVGDRVTITCRASQDINNFLAWFQQKPGKAPKSLIYAASSLQSGVPSKFSGGGSGTDFALTISSLQPEDFATYYCQQYSSYPITFGQGTRLEIK
Take B2: the ka in assay [1] (25° C.) came to 844000 M/s; in assay [1] (37° C.), 973000 M/s; in assay [2] (25° C.), 1.54e+06 M/s; in assay [2] (37° C.), 1.94e+06 M/s; in assay [3] (25° C.) it was 1.17e+06 M/s; in assay [3] (37° C.) it was 1.36e+06 M/s. Besides, the kd in assay [1] (25° C.) came to 0.00197 s⁻¹; in assay [1] (37° C.), 0.00599 s⁻¹; in assay [2] (25° C.) it was 8.41e-05 s⁻¹; in assay [2] (37° C.) it was 7.77e-05 s⁻¹; in assay [3] (25° C.), 0.00177 s⁻¹; in assay [3] (37° C.) it was 0.0052 s⁻¹. In addition, the “FACS Cell Binding” value came to 1 Fold Above Background in assay [4] and 34 Fold Above Background in assay [5].

B3: H1H6797P: fully human anti-PRLR antibody, human IgG1 Fc; HCVR/LCVR SEQ ID NOs 178/186 (antibody, V domains shown)
VH: EVQLVESGGGLVQPGGSLRLSCIVSGFTFSGSWMSWVRQLPGKGLEWVANIKEDGSDSYYVDSVEGRFTISRDNAKSSLYLQMNSLRVDDTAVYFCARARTVPLHYWGQGTLVTVSS
VL: DIQMTQSPSTLSASVGDRVTITCRASQSINIWLAWYQQKPGKAPKLLIYRASYLESGVPSSFAGGGSGTEFTLTISSLQPDDFGTYYCQHYNSYPFTFGQGTKLEIK
Turning to B3, the ka in assay [1] (25° C.) was 670000 M/s; in assay [1] (37° C.) it was 914000 M/s; in assay [2] (25° C.) it was 982000 M/s; in assay [2] (37° C.), 1.8e+06 M/s; in assay [3] (25° C.), 1.13e+06 M/s; in assay [3] (37° C.), 1.29e+06 M/s. The kd in assay [1] (25° C.) was found to be 0.00209 s⁻¹; in assay [1] (37° C.), 0.00906 s⁻¹; in assay [2] (25° C.), 0.000119 s⁻¹; in assay [2] (37° C.), 0.000125 s⁻¹; in assay [3] (25° C.), 0.00196 s⁻¹; in assay [3] (37° C.), 0.00822 s⁻¹. Further, the “FACS Cell Binding” value in assay [4] is on record as 1 Fold Above Background; in assay [5] it was 38 Fold Above Background.

B4: H1H6975N: anti-PRLR antibody, human IgG1 Fc form of H2M6975N of Table 1; HCVR/LCVR SEQ ID NOs 370/378 (antibody, V domains shown)
VH: EVHLVESGGGLVQPGGSLRLSCAASGFTFSSYEMNWVRQTPGKGLEWISHISSRSVIIYYADSVKGRFTISRDNAKNSLFLQMNSLRAEDTAVYFCAGITIFGIPEYWGQGTLVTVSS
VL: EIVLTQSPATLSLSPGERATLSCRASQSVSSYFAWYQQKPGQAPRLLIYDASSRATGIPTRFSGSGSGTDFTLTISSLEPEDFAVYYCQQRSSWPITFGQGTRLEIK
modifications: human IgG1 Fc
With B4, the ka in assay [1] (25° C.) stood at 115000 M/s; in assay [1] (37° C.), 140000 M/s; in assay [2] (25° C.), 287000 M/s; in assay [2] (37° C.) it was 386000 M/s; in assay [3] (25° C.), 150000 M/s; in assay [3] (37° C.) it was 211000 M/s. The kd is 0.000131 s⁻¹ in assay [1] (25° C.); 0.000317 s⁻¹ in assay [1] (37° C.); 1.97e-05 s⁻¹ in assay [2] (25° C.); 7.09e-05 s⁻¹ in assay [2] (37° C.); 7.35e-05 s⁻¹ in assay [3] (25° C.); 0.000273 s⁻¹ in assay [3] (37° C.). Moreover, the “FACS Cell Binding” value in assay [4] is 1 Fold Above Background; in assay [5] it was 46 Fold Above Background. In addition, the “Average Tumor Growth Inhibition (%)” value in assay [6] (setting [7]) turned out to be 51%. Moreover, in assay [6] (setting [7]), the “Final Tumor size mm^3 (mean ± SEM)” value is 659 ± 144 mm^3.

B5: H1H6958N2: anti-PRLR antibody, receptor blocking, human IgG1 Fc form of H2M6958N2 of Table 1; HCVR/LCVR SEQ ID NOs 290/298 (antibody, V domains shown)
VH: QVQLVESGGGVVQPGRSLRLSCGASGFTFRNYGMQWVRQGPGKGLEWVTLISFDGNDKYYADSVKGRFTISRDNSKNTLFLQMNSLRTEDTAVYYCARGGDFDYWGQGTLVTVSS
VL: DIQMTQSPSSLSASVGDRVTITCRASQDIRKDLGWYQQKPGKAPKRLIYAASSLHSGVPSRFSGSGSGTEFTLTISSLQPEDFATYYCLQHNSYPMYTFGQGTKLEIK
As for B5, the ka worked out at 195000 M/s in assay [1] (25° C.); 328000 M/s in assay [1] (37° C.); 422000 M/s in assay [2] (25° C.); 829000 M/s in assay [2] (37° C.); 233000 M/s in assay [3] (25° C.); 413000 M/s in assay [3] (37° C.). For the same molecule, the kd in assay [1] (25° C.) turned out to be 0.00028 s⁻¹; in assay [1] (37° C.) it was 0.00134 s⁻¹; in assay [2] (25° C.), 3.66e-05 s⁻¹; in assay [2] (37° C.), 0.000139 s⁻¹; in assay [3] (25° C.), 0.000272 s⁻¹; in assay [3] (37° C.) it was 0.00131 s⁻¹. For the same molecule, the “FACS Cell Binding” value worked out at 1 Fold Above Background in assay [4] and 37 Fold Above Background in assay [5]. Moreover, the “Average Tumor Growth Inhibition (%)” value in assay [6] (setting [7]) came to 74%; in assay [6] (setting [8]), 17%. For the same molecule, the “Final Tumor size mm^3 (mean ± SEM)” value in assay [6] (setting [7]) was determined as 483 ± 46 mm^3; in assay [6] (setting [8]), 766 ± 128 mm^3; in assay [6] (MCF7/PRLR tumors, single dose 15 mg/kg, Day 55) it was 703 ± 160 mm^3.
